The target of assay [1] is HLA-A*2401 (human). The assay can be described thus: competition with 125I-labelled standard peptide for purified HLA, gel filtration. For orientation: In gel filtration, larger molecules generally elute earlier.
Assay [2] concerns the target HLA-A*2401 (purified HLA class I molecule) (human). As to the kind of experiment: competition with 125I-labelled probe peptide for purified HLA, gel filtration. The settings on record: scale: ratio.
In assay [3] the target is HLA-DR3 (DRB1*0301), purified HLA class II molecule (human). The assay can be described thus: competition with 125I-labelled probe peptide, purified HLA-DR.
The target of assay [4] is HLA-A*2401 (purified HLA class I molecule) (human). The assay can be described thus: competition with 125I-labelled standard peptide for purified HLA, gel filtration. The settings on record: scale: ratio.
The target in assay [5] is HLA-A*2401 (human). The assay can be described thus: inhibition of 125I probe peptide binding to purified HLA; IC50 standard/IC50 test.

Consider eleven substances from patent publication US20040018971A1.

As for “HER2/neu peptide, position 780, 11 amino acids”, the relative binding ratio (IC50 of standard peptide / IC50 of test peptide) (ratio to standard peptide) with HLA-A*2401 (human) [1] is 0.032.

On to “HER2/neu peptide, position 952, 10 amino acids”, for which the relative binding ratio in assay [2] is 0.0019.

For “HER2/neu DR supermotif exemplary 15-mer … (position 912) (peptide)”, in assay [3], the relative binding ratio (ratio (IC50 standard / IC50 test)) was 0.001.

Regarding “HER2/neu peptide, position 172, 10 amino acids”, in assay [4], the relative binding ratio stood at 0.0022. With “HER2/neu 705-714 (from UniProt P04626 705-714) (peptide)”, the relative binding ratio with HLA-A*2401 (human) [5] came to 0.0002.

With “HER2/neu 705-715 (from UniProt P04626 705-715) (peptide)”, in the assay with HLA-A*2401 (human) [5], the relative binding ratio was -0.0003.

As for “HER2/neu DR supermotif exemplary 15-mer … (position 783) (peptide)”, the relative binding ratio (ratio (IC50 standard / IC50 test)) in assay [3] came out at 0.0062.

Regarding “HER2/neu 172-181 (from UniProt P04626 172-181) (peptide)”, the relative binding ratio with HLA-A*2401 (human) [5] was 0.0022. Still for that read-out and setting: as for HER2/neu 780-790 (peptide), the figure is 0.032. Turning to “HER2/neu DR supermotif exemplary 15-mer … (position 8) (peptide)”, in assay [3], the relative binding ratio (ratio (IC50 standard / IC50 test)) is 0.001. The same measure, in the same setting: the figure for “HER2/neu DR supermotif exemplary 15-mer … (position 666) (peptide)” is 0.0021.
